Measured values as given in PMC11101478, “Structural mechanism of bacteriophage lambda tail’s interaction with the bacterial receptor” (Nature Communications, 2024).

B1: gpM (bacteriophage lambda tail protein, in the purified tail) (natural protein)
chain: MKTFRWKVKPGMDVASVPSVRKVRFGDGYSQRAPAGLNANLKTYSVTLSVPREEATVLESFLEEHGGWKSFLWTPPYEWRQIKVTCAKWSSRVSMLRVEFSAEFEQVVN
notes: Tail protein gpM of bacteriophage lambda; also called gpM ring; gpM hexamer; source: E. coli BL21 (DE3) pLysS, as part of the purified lambda tail
B2: gpI (bacteriophage lambda, in the purified tail) (natural protein)
chain: MAATHTLPLASPGMARICLYGDLQRFGRRIDLRVKTGAEAIRALATQLPAFRQKLSDGWYQVRIAGRDVSTSGLTAQLHETLPDGAVIHIVPRVAGAKSGGVFQIVLGAAAIAGSFFTAGATLAAWGAAIGAGGMTGILFSLGASMVLGGVAQMLAPKARTPRIQTTDNGKQNTYFSSLDNMVAQGNVLPVLYGEMRVGSRVVSQEISTADEGDGGQVVVIGR
notes: gpI of bacteriophage lambda: unresolved N-terminal domain, helices H1 and H2, plug domain (159-175), beta-strands joined by loops; in the open structure only residues from 167 onward are seen; Three units in the tail tip; source: E. coli BL21 (DE3) pLysS, as part of the purified lambda tail
B3: gpJ (bacteriophage lambda tip protein, in the purified tail) (natural protein)
chain: MGKGSSKGHTPREAKDNLKSTQLLSVIDAISEGPIEGPVDGLKSVLLNSTPVLDTEGNTNISGVTVVFRAGEQEQTPPEGFESSGSETVLGTEVKYDTPITRTITSANIDRLRFTFGVQALVETTSKGDRNPSEVRLLVQIQRNGGWVTEKDITIKGKTTSQYLASVVMGNLPPRPFNIRMRRMTPDSTTDQLQNKTLWSSYTEIIDVKQCYPNTALVGVQVDSEQFGSQQVSRNYHLRGRILQVPSNYNPQTRQYSGIWDGTFKPAYSNNMAWCLWDMLTHPRYGMGKRLGAADVDKWALYVIGQYCDQSVPDGFGGTEPRITCNAYLTTQRKAWDVLSDFCSAMRCMPVWNGQTLTFVQDRPSDKTWTYNRSNVVMPDDGAPFRYSFSALKDRHNAVEVNWIDPNNGWETATELVEDTQAIARYGRNVTKMDAFGCTSRGQAHRAGLWLIKTELLETQTVDFSVGAEGLRHVPGDVIEICDDDYAGISTGGRVLAVNSQTRTLTLDREITLPSSGTALISLVDGSGNPVSVEVQSVTDGVKVKVSRVPDGVAEYSVWELKLPTLRQRLFRCVSIRENDDGTYAITAVQHVPEKEAIVDNGAHFDGEQSGTVNGVTPPAVQHLTAEVTADSGEYQVLARWDTPKVVKGVSFLLRLTVTADDGSERLVSTARTTETTYRFTQLALGNYRLTVRAVNAWGQQGDPASVSFRIAAPAAPSRIELTPGYFQITATPHLAVYDPTVQFEFWFSEKQIADIRQVETSTRYLGTALYWIAASINIKPGHDYYFYIRSVNTVGKSAFVEAVGRASDDAEGYLDFFKGKITESHLGKELLEKVELTEDNASRLEEFSKEWKDASDKWNAMWAVKIEQTKDGKHYVAGIGLSMEDTEEGKLSQFLVAANRIAFIDPANGNETPMFVAQGNQIFMNDVFLKRLTAPTITSGGNPPAFSLTPDGKLTAKNADISGSVNANSGTLSNVTIAENCTINGTLRAEKIVGDIVKAASAAFPRQRESSVDWPSGTRTVTVTDDHPFDRQIVVLPLTFRGSKRTVSGRTTYSMCYLKVLMNGAVIYDGAANEAVQVFSRIVDMPAGRGNVILTFTLTSTRHSADIPPYTFASDVQVMVIKKQALGISVV
notes: Tip protein gpJ of bacteriophage lambda, 1132 residues: hub domains (HDII-ins1, HDII-ins2, HDII, HDIII, HDIV, OB), FNIII-1, FNIII-2, AHS, CSF, RBD; also called baseplate hub protein; central tail fiber protein; source: E. coli BL21 (DE3) pLysS, as part of the purified lambda tail
B4: Shigella sonnei 3070 LamB (receptor, UniProt Q3YUU9 26-446, looked up)
chain: VDFHGYARSGIGWTGSGGEQQCFQTTGAQSKYRLGNECETYAELKLGQEVWKEGDKSFYFDTNVAYSVAQQNDWEATDPAFREANVQGKNLIEWLPGSTIWAGKRFYQRHDVHMIDFYYWDISGPGAGLENIDVGFGKLSLAATRSSEAGGSSSFASNNIYDYTNETANDVFDVRLAQMEINPGGTLELGVDYGRANLRDNYRLVDGASKDGWLFTAEHTQSVLKGFNKFVVQYATDSMTSQGKGLSQGSGVAFDNEKFAYNINNNGHMLRILDHGAISMGDNWDMMYVGMYQDINWDNDNGTKWWTVGIRPMYKWTPIMSTVMEIGYDNVESQRTGDKNNQYKITLAQQWQAGDSIWSRPAIRVFATYAKWDEKWGYDYNGDSKVNPNYGKAVPADFNGGSFGRGDSDEWTFGAQMEIWW
notes: LamB (maltoporin) of Shigella sonnei 3070; own N-terminal signal peptide replaced by the OMPG signal peptide, Twin-Strep-tag after the signal peptide; differs from E. coli LamB in seven amino acids within the 381-390 region; Used in 0.02% DDM for BLI and for the gpJ713 complex, and in an MSP2N2 nanodisc (E. coli polar lipids) for the tail complex; also called ssLamB; LamB from Shigella sonnei …
B5: gpL (bacteriophage lambda, in the purified tail) (natural protein)
chain: MQDIRQETLNECTRAEQSASVVLWEIDLTEVGGERYFFCNEQNEKGEPVTWQGRQYQPYPIQGSGFELNGKGTSTRPTLTVSNLYGMVTGMAEDMQSLVGGTVVRRKVYARFLDAVNFVNGNSYADPEQEVISRWRIEQCSELSAVSASFVLSTPTETDGAVFPGRIMLANTCTWTYRGDECGYSGPAVADEYDQPTSDITKDKCSKCLSGCKFRNNVGNFGGFLSINKLSQ
notes: gpL of bacteriophage lambda; consists of HDI and 4Fe-4S domains; Three units in the tail tip; also called baseplate hub protein; source: E. coli BL21 (DE3) pLysS, as part of the purified lambda tail
B6: gpJ713 (C-terminal truncation of bacteriophage lambda gpJ, starting from residue 713) (domain or fragment, UniProt P03749 713-1132, looked up)
chain: APAAPSRIELTPGYFQITATPHLAVYDPTVQFEFWFSEKQIADIRQVETSTRYLGTALYWIAASINIKPGHDYYFYIRSVNTVGKSAFVEAVGRASDDAEGYLDFFKGKITESHLGKELLEKVELTEDNASRLEEFSKEWKDASDKWNAMWAVKIEQTKDGKHYVAGIGLSMEDTEEGKLSQFLVAANRIAFIDPANGNETPMFVAQGNQIFMNDVFLKRLTAPTITSGGNPPAFSLTPDGKLTAKNADISGSVNANSGTLSNVTIAENCTINGTLRAEKIVGDIVKAASAAFPRQRESSVDWPSGTRTVTVTDDHPFDRQIVVLPLTFRGSKRTVSGRTTYSMCYLKVLMNGAVIYDGAANEAVQVFSRIVDMPAGRGNVILTFTLTSTRHSADIPPYTFASDVQVMVIKKQALGISVV
notes: holds FNIIIs, AHS, CSF and RBD; Trimer (C3 symmetry in the closed state map); also called central tail fiber; His-tagged gpJ713; source: E. coli BL21 (DE3), purified (nickel gravity column, gel filtration); not shown: 6xHis, N-terminal, kept

Experiments:
[1] = biological target: the molecule itself; test: cryo-EM structure; purified lambda tail mixed with ssLamB in MSP2N2 nanodisc, room temperature 50 min, nickel column and Superose 6 Increase; open state of the tail
[2] = biological target: B5; test: as above; conditions: both partners purified
[3] = biological target: B3; test: as above; conditions: both partners purified
[4] = biological target: the molecule itself; test: cryo-EM structure; gpJ713 alone, closed state; C3 symmetry; map at 2.76 A
[5] = biological target: T1, E. coli LamB A384S (E. coli, UniProt P02943 26-446, A384S); test: BLI; His-tagged gpJ713 (2 ug/mL) captured on Ni-NTA sensors; five concentrations of Twin-Strep-tagged LamB in lysis buffer with 0.02% DDM; dissociation in the same buffer; conditions: both partners purified
T1 construct: LamB (maltoporin) of E. coli with the single-point mutation A384S; the text says A384S; also called ecLamB A384S; source: E. coli BL21 (DE3), isolated from the outer membrane in DDM, purified (Strep-Tactin XT, gel filtration); not shown: Twin-Strep-tag, N-terminal, kept

[6] = biological target: T2, E. coli LamB (E. coli, UniProt P02943 26-446); test: as above; conditions: both partners purified
T2 construct: LamB (maltoporin) of E. coli; own N-terminal signal peptide replaced by the OMPG signal peptide, Twin-Strep-tag after the signal peptide; also called ecLamB; E. coli's LamB; source: E. coli BL21 (DE3), isolated from the outer membrane in DDM, purified (Strep-Tactin XT, gel filtration); not shown: Twin-Strep-tag, N-terminal, kept

Row | Binder | stoichiometry N [1] | binding result [3] | other results
1 | B1 | 6 | binds | binding result [2]: binds
2 | B2 |  | binds | 
3 | B3 | 3 |  | 
4 | B4 | 3 |  | 
5 | B5 |  | binds | 
6 | B6 |  |  | stoichiometry N [4]: 3; binding result [5]: binds; Kd [6]: 1.76 nM
